Measured values published in the RNAGym collection of RNA variant scans (doi:10.1073/pnas.2313332121).

B1: TPR t1 (parent)
chain: GACCAAUCUGCCCUCAGAGCUCGAGAACAUCUUCGGAUGCAGAGGAGGCAGGCUUCGGUGGCGCGAUAGCGCCAACGUCCUCAACCUCCAAUGCAUCCCACCACAUGAUGAUGCCUGAAGAGCCUUGGUUUUUUG

Variants of: B1
Experiment: polymerase ribozyme fitness, log enrichment relative to wild type (log ratio); higher = more active; in vitro selection for triplet polymerase activity
Summary of the method: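 One round of in vitro selection, in triplicate, was applied to PCR-built, transcribed mutant libraries of each subunit of a heterodimeric triplet polymerase ribozyme. The steps were annealing with a biotinylated primer, partner subunit and triplets, incubation frozen at −7 °C, gel excision of extended constructs, streptavidin-bead capture and RT-PCR. Fitness is the logarithm, base 2, of genotype enrichment over wild-type enrichment from inverse-variance-weighted replicate averages of Illumina-sequenced inputs and outputs, keeping genotypes with ≥10 input reads and ≥1 read per output.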

| Variant | polymerase ribozyme fitness (log ratio) |
| --- | --- |
| GACCAAUUUGCCCUCAGAGCUCGAGAACAUCUUCGGAUGCAGAGGAGGCAGGCUUCGGUGGCGCGAUAGCGGCAACGUCCUCAUCCCCCAAGGCAUCCCACCACAUGAUGAUGCCUGAAGAGCCUUGGUUUUUUG [C8U C72G A84U U87C U92G] | -4.49 |
| GACCAAUUUGCCCUCAGAGCUCGAGAACAUCUUCGGAUGCAGAGGAGGCAGGCUUCGGUGGCGCGAUAGCGGCAACGUCCUCAACCUCCAAUGCAUCCCACCACAUGAUGAUGCCUGAAGAGCCUUGGUUUUUUG [C8U C72G] | 0.517 |
| GACCAAUUUGCCCUCAGAGCUCGAGAACAUCUUCGGAUGCAGAGGAGGCAGGCUUCGGUGGCGCGAUAGAGCCAACGUCCUCAACCUCCAAUGCAUCCCACCACAUGAUGAUGCUUAAAGAGCCUUGGUUUUUUG [C8U C70A C115U G117A] | -4.95 |
| GACCAAUUUGCCCUCAGAGCUCGAGAACAUCUUCGGAUGCAGAGGAGGCAGGCUUCGGUGGCGCGAUAGCGGCAACGUCCUCAACCUCCAAAGCAUCCCACCACAUGAUGAUGCCUGAAGAGACUUGGUUUUUUG [C8U C72G U92A C123A] | -2.13 |
| GACCAAUUUGCCCUCAGAGCUCGAGAACAUCUUCGGAUGCAGAGGAGGCAGGCUUGGGUGGCGCGAUAGCGCCAACGUCAUCAACCUCCAAUGCAUCCCACCACAUGAUGAUGCCUGAAGAGCCUUGGUUUUUUG [C8U C56G C80A] | -1.69 |
| GACCAAUUUGCCCUCAGAGCUCGAGAACAUCUUCGGAUGCAGAGGAGGCAGGCUUCGGUGGCGCGAUAGCGGCAACGUCCUCAACCUCCAAUACAUCCCACCACAUGAUGAUGCCUGAAGAGCCUUGGUUUUUUG [C8U C72G G93A] | -0.0349 |
| GACCAAUUUGCCCUCAGAGCUCGAGAACAUCUUCGGAUGCAGAGGAGGUAGGCUUUGGUGGCGCGAUAGUGCCAACGUCCUCAACCUCCAAUGCAUCACACCACAUGAUGAUGCCUGAAGAGCCUUGGUUUUUUG [C8U C49U C56U C70U C98A] | -6.59 |
| GACCAAUUUGCCCUCAGAGCUCGAGAACAUCUUCGGAUGCAGAGGAGGCAGGCUUCGGUGGCGCGAUAGCGUCAACGUCCUAACCCUCCAAUGCAUCCCACCACAUGAUGCUGCCUGAAGAGCCUUGGUUUUUUG [C8U C72U C82A A84C A111C] | 0.264 |
| GACCAAUUUGCCCUCAGAGCUCGAGAACAUCUUCGGAUGCAGAGGAGGCAGGCUUCGGUGGUGCGAUAGCGCCAACGUCCUCAACCACCAAUGCAUCCCACCACAUGAUGAUGCCUGAAGUGCCUUGGUUUUUUG [C8U C62U U87A A121U] | 1.89 |
| GACCAAUUUGCCCUCAGAGCUCGAGAACAUCUUCGGAUGCAGAGGAGGCAGGCUUCGGUGGCGAGAUAGCGCCAACGCCCUCAACCUCCAAUGCAUCCCACCACAUGAUGAUGCCUGAAGAGUCUUGGUUUUUUG [C8U C64A U78C C123U] | -4.51 |
| GACCAAUUUGCCCUCAGAGCUCGAGAACAUCUUCGGAUGCAGAGGAGGCAGGCUUCGGUGGUGCGAUAGCGCCAACGUCCUCAACCUCCAAUGCAUCCCACCACAUGAUGAUGCCUGAAGAGCCUUGGUUUUUUG [C8U C62U] | 0.699 |
| GACCAAUUUGCCCUCAGAGCUCGAGAACAUCUUCGGAUGCAGAGGAGGCAGGCUUCGGUGGAGCGAUAGCGCCAACGUCCUCAACCUCCAAUGCAUCCCACCACAUGAUGAUGCCUGAAGAGCCUUGGUUUUUUG [C8U C62A] | -0.587 |
| GACCAAUUUGCCCUCAGAGCUCGAGAACAUCUUCGGAUGAAGAGGAGGCAGGCUUCGGUGGCGCGAUAGCGCCAACGUCCUCAACCUCCAAUGCAUCCCACCACAUGAUGAUGCCUGAAGAGCCUUGGUUUUUUG [C8U C40A] | -1.07 |
| GACCAAUUUGCCCUCAGAGCUCGAGAACAUCUUCGGAUGCAGAGGAGGCAGGCUUCGGUGGUGAGAUAGCGCCAACGUCCUCAACCUCCAAUGCAUCCCACCACAUGAUGAUGCCUGAAGAGCCUUGGUUUUUUG [C8U C62U C64A] | -5.43 |
| GACCAAUUUGCCCUCAGAGCUUGAGAACAUCUUCGGAUGCAGAGGAGGCAGUCUUCGGUCGCGCGAUAGCGCCAACGUCCUCAACCUCCAAUGCAUCCCACCACAUGAUGAUGCCUGAAGAGCCUUGGUUUUUUG [C8U C22U G52U G60C] | -4.56 |
| GACCAAUUUGCCCUCAGAGCUCGAGAACAUCUUCGGAUGCAGAGGAGGCAGGCUUCGGUGGCGCGAUAGCGGCAACGUCCUCAACCUCCAAUGCAGCCCACCACAUGAUGAUGCCUGAAGAGCCUUGGUUUUUUG [C8U C72G U96G] | -1.03 |
| GACCAAUUUGCCCUCAGAGCUCGAGAACAUCUUCGGAUGUAGAGGAGGCAGGCUUCGGUGGCGCGAUAGCGCCAACGUCCUCAACCUCCAAUGCAUCCCACCAAAUGAUGAUGCCUGAGGAGCCUUGGUUUUUUG [C8U C40U C104A A119G] | -1.19 |
| GACCAAUUUGCCCUCAGAGCUCGAGAACAUCUUCGGAUGCAGAGGAGGCAGGCUUCGGUGGCGCGAUAGCGCUAACGUCCUCAACCUCCAAUGCAUCCCACCACAUGAUGAUGCCUGAAAAGCCUUGGUUUUUUG [C8U C73U G120A] | 1.89 |
| GACCAAUUUGCCCUCAGAGCUCGAGAACAUCUUCGGAUGCAGAGGAGGCAGGCUUCGGUGGCGCGAUAGGGCCAACGUCCUCAACCUCCAAUGCAUCCCACCACAUGAUGAUGCCUGAAGAGCCUUGGUUUUUUG [C8U C70G] | -1.58 |
| GACCAAUUUGCCCUCAGAGCUCGAGAACAUCUUCGGAUGCAGAGGAGGCAGGCUUCGGUGGCGCGAUAGAGCCAACGUCCUCAACCUCCAAUGCAUCCCACCACAUGAUGAUGCCUGAAGAGCCUUGGUUUUUUG [C8U C70A] | -1.06 |
| GACCAAUUUGCCCUCAGAGCUCGAGAACAUCUUCGGAUGCAGAGGAGGCAGGCUUCGGUGGCGCGAUAGUGCCAACGUCCUCAACCUCCAAUGCAUCCCACCACAUGAUGAUGCCUGAAGAGCCUUGGUUUUUUG [C8U C70U] | -0.398 |
